Experimental data: article PMC2626662

Tests used:
Assay in all cases: SPR
[1] = biological target: HLA-B*4403^EENL (human | not stated | Epstein-Barr virus)
[2] = biological target: HLA-B*4402^EENL (human | not stated | Epstein-Barr virus)
[3] = biological target: HLA-B*4405^EENL (human | not stated | Epstein-Barr virus)
[4] = biological target: DM1 TCR (human)

Row | Kd [1] | Kd calc [1] | koff [1] | Kd [2] | Kd calc [2] | koff [2] | Kd [3] | Kd calc [3] | koff [3] | Kd [4] | Substance
1 | 9.4 µM | 16 µM | 0.25 s⁻¹ | 6.3 µM | 14 µM | 0.2 s⁻¹ | 0.3 µM | 0.23 µM | 0.02 s⁻¹ |  | DM1 TCR
2 |  |  |  |  |  |  |  |  |  | 1 µM | HLA-B*4405^EENL (from UniProt P61769 21-119) (peptide-MHC)
